Measured values taken from the Human Domainome abundance scans (Beltran et al. 2025).
± gives the uncertainty stated by the source.

B1: SWI/SNF complex subunit SMARCC2, residues 599 to 641; numbered along this chain, Q8TAQ2 (parent)
chain: REWTEQETLLLLEALEMYKDDWNKVSEHVGSRTQDECILHFLR

Variants of: B1
Assay: abundance fitness (aPCA) (normalised: wild type 0, dead -1); higher = more abundant; growth selection in yeast, the domain comes from the species named
Settings: Homo sapiens

REWTEQETLLLLEALEMYKDDWEKVSEHVGSRTQDECILHFLR and REWTEQETLLLLEALEMYKDDWKKVSEHVGSRTQDECILHFLR are within error of each other in abundance fitness: 0.091 ± 0.17 for the first, 0.037 ± 0.072 for the second.

REWTEQETLLLLEALEMYKDDWNKVSEDVGSRTQDECILHFLR and REWTEQETLLLLEALEMYKDDWNKVSEEVGSRTQDECILHFLR are within error of each other in abundance fitness: -1.16 ± 0.23 for the first, -0.748 ± 0.41 for the second.

First: REWIEQETLLLLEALEMYKDDWNKVSEHVGSRTQDECILHFLR
Second: REWVEQETLLLLEALEMYKDDWNKVSEHVGSRTQDECILHFLR
The abundance fitness of the first is higher: 0.029 ± 0.24 for the first, -0.552 ± 0.081 for the second.

REWTEQETLLLLEALEMYKDDWNKVSEHVGFRTQDECILHFLR and REWTEQETLLLLEALEMYKDDWNKVSEHVGWRTQDECILHFLR are within error of each other in abundance fitness: -0.411 ± 0.19 for the first, -0.024 ± 0.24 for the second.

REWTEQETLLLLEALEMYKDDWNKVSEHVGERTQDECILHFLR and REWTEQETLLLLEALEMYKDDWNKVSEHVGSRTQDECILAFLR are within error of each other in abundance fitness: 0.12 ± 0.34 for the first, -0.081 ± 0.096 for the second.

REWTEQETLLLLEALEMYKDDWNKVSEHVGSRTQDECILWFLR and REWTEQETLLLLEALEMYKDDWNKVSEHVGSRTQDECILTFLR are within error of each other in abundance fitness: -0.139 ± 0.23 for the first, -0.27 ± 0.099 for the second.

REWTEQVTLLLLEALEMYKDDWNKVSEHVGSRTQDECILHFLR and REWTEQGTLLLLEALEMYKDDWNKVSEHVGSRTQDECILHFLR are within error of each other in abundance fitness: -0.815 ± 0.24 for the first, -0.756 ± 0.12 for the second.

REWTEQETLLLLEAAEMYKDDWNKVSEHVGSRTQDECILHFLR and REWTEQETLLLLEAMEMYKDDWNKVSEHVGSRTQDECILHFLR are within error of each other in abundance fitness: 0.409 ± 0.064 for the first, 0.436 ± 0.093 for the second.

REWTEQETLLLLEALEMYKMDWNKVSEHVGSRTQDECILHFLR and REWTEQETLLLLEALEMYKKDWNKVSEHVGSRTQDECILHFLR are within error of each other in abundance fitness: -0.361 ± 0.36 for the first, 0.054 ± 0.11 for the second.

REWTEQETLLLLEALEMYKPDWNKVSEHVGSRTQDECILHFLR and REWTEQETLLLLEALEMYKGDWNKVSEHVGSRTQDECILHFLR are within error of each other in abundance fitness: 0.055 ± 0.088 for the first, 0.005 ± 0.064 for the second.

REWTEQETLLLLEALEMYKTDWNKVSEHVGSRTQDECILHFLR and REWTEQETLLLLEALEMYKDDWNKVSEHVGSRTQKECILHFLR are within error of each other in abundance fitness: -0.412 ± 0.12 for the first, 0.047 ± 0.34 for the second.

REWTEQETLLLLEALEMYKDDWNKVSEHVGSRTQAECILHFLR and REWTEQETLLLLEALEMYKDDWNKVSEHVGSRTQPECILHFLR are within error of each other in abundance fitness: 0.121 ± 0.084 for the first, 0.066 ± 0.071 for the second.

Going from REWTEQETLLLLEALEMYKDDWNKVSEHVGSRTADECILHFLR to REWTEQETLLLLEALEMYKDDCNKVSEHVGSRTQDECILHFLR, the abundance fitness falls from -0.235 ± 0.1 to -0.792 ± 0.13.

First: REWTEQETLLLLEALEMYKDDVNKVSEHVGSRTQDECILHFLR
Second: REWTEQETLLLLEALEMYKDDANKVSEHVGSRTQDECILHFLR
The abundance fitness of the first is higher: -0.529 ± 0.086 for the first, -0.791 ± 0.11 for the second.

REWTEQETLTLLEALEMYKDDWNKVSEHVGSRTQDECILHFLR and REWTEQETLHLLEALEMYKDDWNKVSEHVGSRTQDECILHFLR are within error of each other in abundance fitness: -0.226 ± 0.096 for the first, -0.115 ± 0.086 for the second.

REWTEQETLSLLEALEMYKDDWNKVSEHVGSRTQDECILHFLR and REWTEQETLMLLEALEMYKDDWNKVSEHVGSRTQDECILHFLR are within error of each other in abundance fitness: -0.009 ± 0.064 for the first, 0.03 ± 0.25 for the second.

Compared with REWTEQETLELLEALEMYKDDWNKVSEHVGSRTQDECILHFLR, REWTEQETLDLLEALEMYKDDWNKVSEHVGSRTQDECILHFLR is lower in abundance fitness: 0.346 ± 0.27 for the first, -0.224 ± 0.19 for the second.

REWTEQETLWLLEALEMYKDDWNKVSEHVGSRTQDECILHFLR and REWTEQETLLLLEALEMYKDDWNKVSEHVGSVTQDECILHFLR are within error of each other in abundance fitness: -0.325 ± 0.13 for the first, -0.523 ± 0.13 for the second.

REWTEQETLLLLEALEMYKDDWNKVSEHVGSYTQDECILHFLR and REWTEQETLLLLEALEMYKDDWNKVSEHVGSHTQDECILHFLR are within error of each other in abundance fitness: -0.426 ± 0.18 for the first, -0.374 ± 0.11 for the second.

Going from REWTEQETLLLLETLEMYKDDWNKVSEHVGSRTQDECILHFLR to REWTEQEALLLLEALEMYKDDWNKVSEHVGSRTQDECILHFLR, the abundance fitness rises from -0.864 ± 0.16 to 0.109 ± 0.074.

Going from REWTEQEQLLLLEALEMYKDDWNKVSEHVGSRTQDECILHFLR to REWTEQETLLLLEALKMYKDDWNKVSEHVGSRTQDECILHFLR, the abundance fitness falls from 0.316 ± 0.069 to -0.059 ± 0.13.

First: REWTEQETLLLLEALSMYKDDWNKVSEHVGSRTQDECILHFLR
Second: REWTEQETLLLLEALIMYKDDWNKVSEHVGSRTQDECILHFLR
The abundance fitness of the first is higher: -0.301 ± 0.084 for the first, -0.759 ± 0.15 for the second.

First: REWTEQETLLLKEALEMYKDDWNKVSEHVGSRTQDECILHFLR
Second: REWTEQETLLLLEALEMYKDDWNKVIEHVGSRTQDECILHFLR
The abundance fitness of the first is higher: 0.204 ± 0.26 for the first, -0.449 ± 0.16 for the second.

First: REWTEQETLLLLEALEMYKDDWNKVKEHVGSRTQDECILHFLR
Second: REWTEQETLLLLEALEMYKDDWNKVSEHVGSRGQDECILHFLR
The abundance fitness of the first is higher: 0.211 ± 0.089 for the first, 0 ± 0.087 for the second.

REWTEQETLLLLEALEMYKDDWNKVSEHVGSRRQDECILHFLR and REWTEQETLLLLEALEMYKDDWNKVSNHVGSRTQDECILHFLR are within error of each other in abundance fitness: 0.123 ± 0.077 for the first, -0.042 ± 0.095 for the second.

First: REWTEQETLLLLEALEMYKDDWNKVSPHVGSRTQDECILHFLR
Second: RVWTEQETLLLLEALEMYKDDWNKVSEHVGSRTQDECILHFLR
The abundance fitness of the first is lower: -0.677 ± 0.25 for the first, 0.247 ± 0.11 for the second.

Compared with RAWTEQETLLLLEALEMYKDDWNKVSEHVGSRTQDECILHFLR, RHWTEQETLLLLEALEMYKDDWNKVSEHVGSRTQDECILHFLR is higher in abundance fitness: 0.077 ± 0.058 for the first, 0.287 ± 0.074 for the second.

Going from RRWTEQETLLLLEALEMYKDDWNKVSEHVGSRTQDECILHFLR to REWTEQETLLLLEALEMYKDDWNKVSEHVGSRTQDECILHELR, the abundance fitness rises from 0.165 ± 0.061 to 0.354 ± 0.11.

Compared with REWTEQETLLLLEALEMYKDDWNKVSEHVGSRTQDECILHRLR, REWTEQETLLLLEALEMYKDDWNKVSEHVGSRTQDECILHTLR is lower in abundance fitness: 0.501 ± 0.084 for the first, 0.047 ± 0.079 for the second.

For REWTEQETLLLLEALEMYKDDWNKVSEHVGSRTQDECILHSLR, the abundance fitness was 0.324 ± 0.066.
